This note sets out measurements from patent publication US20210221869A1.

This experiment addresses M22 antibody (thyrotropin receptor autoantibody). As to the kind of experiment: M22-blocking ELISA (KRONUS kit): fusion protein in 2-fold dilutions pre-incubated with peroxidase-M22, then added to the kit plate. On the technique in general: ELISA stands for enzyme-linked immunosorbent assay.

By IC50 is commonly meant the concentration that inhibits the measured activity by half. The substance TSHR 21-282 D43A (N01) (Fc fusion) returned an IC50 of 3 µg/mL.
